The record followed here is patent US20110039758A1.

Common to all, as to assay: G assay
Assay [1] addresses GST-PSD95 PDZ domain 3 (human).
Assay [2] has as its target GST-NOS1 (nNOS) PDZ domain (human).
For assay [3], the target named is GST-PSD95 PDZ domain 1 (human).
In assay [4] the target is GST-PSD95 PDZ domain 2 (human).

Values joined by “and” are separate entries in the source; they are usually repeats but may differ in a detail not shown here. Identical values can stand only once. Ends that are not written are not given here.

For HHLVAQRDIRQFQLQHWLAI (modifications not checked) [noradrenaline transporter PL peptide], the Average OD in assay [1] is 0.82 OD and 0.7 OD; in assay [2] it was 1.08 OD.
Consider LNSCSNRRVYKKMPSIESDV (modifications not checked) [NMDAR2A C-terminal 20mer peptide], for which the Average OD in assay [3] was 4.07 OD and 4 OD.
In the case of SSPDSSYQGKGFVMSRAMYV (modifications not checked) [Nectin 2 PL peptide], the Average OD in assay [3] is 1.01 OD; in assay [1], 0.91 OD; in assay [2], 0.54 OD.
QISPGGLEPPSEKHFRETEV (modifications not checked) [20 C-terminal amino acids from TAX] displayed an Average OD in assay [4] of 2.39 OD.
For RIAYSLLGLKDQVNTVGIPI (modifications not checked) [ephrin A2 PL peptide], the Average OD in assay [2] is 1.83 OD and 4 OD.
Still for that read-out and setting: next, SPQPDSTDNDDYDDISAA (modifications not checked) [CD6 PL peptide]: 0.59 OD.
As for SSKSKSSEESQTFFGLYKL (modifications not checked) [Fas Ligand PL peptide], the Average OD was 1.23 OD in assay [3]; 1.07 OD in assay [1]; 1.99 OD and 1.93 OD in assay [2].
Regarding PIPAGGCTFSGIFPTLTSPL (modifications not checked) [KIAA 1481 PL peptide], the Average OD in assay [2] came to 0.71 OD.
On the same count and under the same terms, with VGTLLLERVIFPSVKIATLV (modifications not checked) [AdenoE4 typ9 PL peptide] the figure was 3.64 OD and 2.73 OD and 4 OD.
Take DGGARTEDEVQSYPSKHDYV (modifications not checked): the Average OD in assay [3] worked out at 1.25 OD; in assay [1], 1.05 OD.
In the case of TQGFPGPATWRRISSLESEV (modifications not checked) [NMDA Glutamate Receptor 2C (cysteine-free) C-terminal 20mer peptide], the Average OD in assay [1] was 1.46 OD and 1.17 OD; in assay [2], 0.49 OD; in assay [4], 3.56 OD and 2.89 OD and 2.07 OD.
SFTSILTCHQRRTQRKETVA (modifications not checked) [GluR5-2 (rat) PL peptide]: the Average OD in assay [3] was 3.12 OD and 2.26 OD; in assay [1], 4 OD; in assay [2], 0.65 OD.
In the case of VDPNSPAAKKKYVSYNNLVI (modifications not checked) [GLUR7 (metabotropic glutamate receptor) PL peptide], the Average OD in assay [3] is 0.85 OD; in assay [1], 0.82 OD; in assay [2], 0.75 OD and 0.64 OD and 0.59 OD.
In assay [2], ALVLIAFCIIRRRPSAYQAL (modifications not checked) [CD68 PL peptide] showed an Average OD of 0.67 OD.
For YGRKKRRQRRRKLSSIESDV (not fully specified) [[…] (Tat transporter fused to the C-terminal 9 amino acids of NMDA Receptor 2B)], the Average OD is 3.87 OD and 2.13 OD and 1.4 OD in assay [3]; 4.06 OD and 3.53 OD and 3.1 OD in assay [4].
On to RSGATIPLVGQDIIDLQTEV (modifications not checked), for which the Average OD in assay [4] is 1.23 OD.
AWDDSARAAGGQGLHVTAL (modifications not checked) [LPAP PL peptide] had an Average OD in assay [2] of 0.77 OD.
For DFRPSFKHILFRRARRGFRQ (modifications not checked) [alpha-2C Adrenergic receptor PL peptide], the Average OD in assay [3] was 2.05 OD and 1.26 OD; in assay [1] it was 1.72 OD and 1.19 OD; in assay [2] it was 3.02 OD and 2.09 OD.
In the case of PGQPPKVKSEFNSYSLTGYV (modifications not checked) [claudin 2 PL peptide], the Average OD in assay [3] was 1.03 OD and 0.85 OD; in assay [1], 0.79 OD; in assay [2], 0.69 OD.
Take GGDLGTRRGSAHFSSLESEV (modifications not checked) [NMDAR2D C-terminal 20mer peptide]: the Average OD in assay [3] is 0.86 OD and 0.77 OD; in assay [4] it was 3.11 OD and 2.22 OD and 1.31 OD.
HSCCNRARQERLQRRRETQV (modifications not checked) [HPV-E6 #18 PL peptide] came in with an Average OD in assay [2] of 2.14 OD.
As to GRWTGRAMSAWKPTRRETEV (modifications not checked) [HPV E6 #35 (cysteine-free) PL peptide], the Average OD was 4 OD and 3.08 OD in assay [3]; 4 OD in assay [1]; 0.74 OD and 0.62 OD in assay [2]; 2.82 OD in assay [4].
With TTNNNPNSAVNIKKIFTDV (modifications not checked) [KV1.3 PL peptide], the Average OD in assay [3] was 2.28 OD and 1.12 OD; in assay [1], 1 OD; in assay [2] it was 0.67 OD; in assay [4], 1.06 OD.
PYSELNYETSHYPASPDSWV (modifications not checked) [catenin-delta 2 PL peptide]: the figures for the Average OD in assay [3] and in assay [2] were 1.18 OD and 2.1 OD, respectively.
Regarding TGSALQAWRHTSRQATESTV (modifications not checked), the values for the Average OD in assay [3] and in assay [1] were 3.86 OD and 0.78 OD, respectively.
For the molecule ELLQFCRTPNPALKNGQYWV (modifications not checked) [CSPG4 (chondroitin sulfae proteoglycan 4, melanoma-associated) PL peptide], the Average OD in assay [2] is 2.43 OD and 1.27 OD.
Take KAGYRAPRSYPKSNSSKEYV (modifications not checked) [claudin 7 PL peptide]: the Average OD in assay [3] was 1.28 OD and 1.08 OD; in assay [1], 0.92 OD and 0.86 OD; in assay [2], 1.01 OD and 0.93 OD.
In turn, VPSDNIDSQGRNASINDSLL (modifications not checked) [beta-2 Adrenergic Receptor PL peptide] showed an Average OD in assay [2] of 0.85 OD.
Same read-out and setting: with LAVLAYSITLVMLWSIWQYA (modifications not checked) [Serotonin receptor 3a PL peptide] the figure was 1.02 OD.
As to SYPTPRPYPKPAPSSGKDYV (modifications not checked) [claudin 1 PL peptide], the Average OD in assay [3] came out at 0.95 OD; in assay [1] it was 0.85 OD; in assay [2] it was 0.9 OD.
The molecule SSSQSLESDGSYQKPSYIL (modifications not checked) [CD62E PL peptide] showed an Average OD in assay [2] of 0.5 OD.
Same read-out and setting: with KTMPAAMYRLLTAQEQPVYI (modifications not checked) [MINT-1 PL peptide] the figure was 4 OD and 3.76 OD.
Take RELVDRGEVRQFTLRHWLKV (modifications not checked) [Dopamine transporter PL peptide]: in assay [2], the Average OD is 1.38 OD and 1.27 OD and 1.1 OD.
For VHKVRNKFKAKCSLCRLYII (modifications not checked) [HPV-E6 #63 PL peptide], the Average OD in assay [3] was 4 OD and 2.67 OD; in assay [1], 4 OD; in assay [2] it was 2.55 OD and 4 OD; in assay [4] it was 4 OD and 2.62 OD.
On to LGYSIPSRSGASGLDKRDYV (modifications not checked) [claudin 9 PL peptide], for which the results for the Average OD in assay [3] and in assay [2] were 0.82 OD and 0.51 OD, respectively.
Consider HDFRRAFKKILARGDRKRIV (modifications not checked) [alpha-2A Adrenergic receptor PL peptide], for which, in assay [2], the Average OD was 0.96 OD and 0.73 OD.
For the molecule QDFRRAFRRILARPWTQTAW (modifications not checked) [a-2B Adrenergic receptor PL peptide], the Average OD is 1.59 OD and 0.87 OD in assay [3]; 3.74 OD and 2.98 OD in assay [1]; 3.54 OD and 2.52 OD in assay [2].
In assay [4], KDITSDSENSNFRNEIQSLV (modifications not checked) returned an Average OD of 1.35 OD.
On the same count and under the same terms, with LNSSSNRRVYKKMPSIESAV (modifications not checked) the figure was 3.37 OD and 2.67 OD and 2.29 OD.
